From publication PMC8486322 (Cell, 2019)

Biological target: eRF3 fused with maltose binding protein (MBP-eRF3) ( (the printed NM_002094.3 is …, UniProt P15170-3 1-637))
Test: pull-down

B1: SFL fused with glutathione S-transferase (GST-SFL) (natural protein)
chain: not shown
B1: binds.
